{"source": "paper doi:10.1101/2023.06.06.543969", "about": "(bioRxiv, 2023)", "binders": {"B1": {"name": "Fab234 (WT) (Fab, V domains shown)", "VH": "EVQLVESGGGLVKPGGSLRLSCAASGFNFSTHIMNWVRQAPGKGLEWVSSISSSGTYIYYADSMKGRFTISRDNPKNSLYLQMNSLRAEDTAVYYCARARGFIQFHYYMDVWGKGTTVAVSS", "VL": "SYVLTQPPSVSVAPGKTARITCGGNNIGSKSVHWHQQRPGQAPVLVVYDDKIRPSGIPERFSGSNSGNTATLIISRVEAGDEADYYCQVWHSSSDPVVFGGGTKLTVL"}, "B2": {"name": "5J8 Fab (WT) (Fab, V domains shown)", "VH": "EVQLVESGPGLVKPSDILSLTCAVSGYSISSNYYWGWIRQPPGKGLEWIGSIYHSGSTYYKPSLESRLGISVDTSKNQFSLKLSFVSAADTAVYYCARHVRSGYPDTAYYFDKWGQGTLVTVSS", "VL": "SYVLTQPPSVSVAPGETARISCGGNNIGTKVLHWYQQTPGQAPVLVVYDDSDRPSGIPERFSGSNSGNTATLTISRVEVGDEADYYCQVWDISTDQAVFGGGTKLTVL", "notes": "also called IGLV3–21 antibody 5J8; source: ExpiCHO, transiently co-transfected, purified (CaptureSelect CH1-XL)"}, "B3": {"name": "GAR12 Fab VL D50K (Fab, V domains shown)", "VH": "EVQLVQSGGGLVQPGGSLRLSCAASGFTFSSYAMSWVRQAPGKGLEWVLSISGSGGSTYYADSVKGRFTISIDNSKKTVYLQMNSLRAEDTAVYYCAKSGEQQLVQAEYFHHWGQGTLVTVSS", "VL": "DIQMTQSPSTLSASVGDRVTITCRASQSIGRWLAWYQQKPGKAPKLLIYKASSLESGVPSRFSGSGFGTEFTLTISSLQPDDFATYYCQQCDSLLTFGGGTKLEIK", "notes": "also called GAR12 VL D50K; source: ExpiCHO, transiently co-transfected, purified (CaptureSelect CH1-XL)"}}, "assay_in_all_cases": "BLI", "conditions_in_all_cases": "both partners purified", "key": {"[1]": {"target": "T1, biotinylated αTSR domain of P. falciparum circumsporozoite protein (Plasmodium falciparum 3D7 (by PDB 7RXI))", "T1 construct": "also called P. falciparum CSP; C-terminal αTSR domain of P. falciparum circumsporozoite protein", "T1 chain": "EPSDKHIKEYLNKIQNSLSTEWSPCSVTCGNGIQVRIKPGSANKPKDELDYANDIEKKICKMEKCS"}, "[2]": {"target": "influenza hemagglutinin (HA) from H1N1 A/California/07/2009 (Influenza A virus H1N1 …, UniProt C3W5X2, biotinylated)"}, "[3]": {"target": "T2, His6-tagged SARS-CoV-2 receptor-binding domain (SARS-CoV-2, UniProt P0DTC2)", "T2 construct": "source: High Five cells, purified (Ni-NTA, size exclusion)"}}, "data": [{"binder": "B1", "values": [{"measurement": "binding result", "setting": "[1]", "value": "binds"}]}, {"binder": "B2", "values": [{"measurement": "binding result", "setting": "[2]", "value": "binds"}]}, {"binder": "B3", "values": [{"measurement": "fold change in KD against the wild type", "setting": "[3]", "value": 44, "unit": "fold"}]}]}
